# Experimental data as given in PMC5703881.
# What was measured:
# Assay in all cases: SPR
# Conditions in all cases: Bead assay: PBS with 1% BSA, antibody 0.2 or 2 ug/ml, 1 h, 22 C; SPR conditions not in the material
# 71F12GL-SFH (human) = system: 71F12GL-SFH (human)
# 71F12GL-SF (human) = system: 71F12GL-SF (human)
# 72H11 IgG (human) = system: 72H11 IgG (human)
# [1] = system: 71F12 GL (germline-reverted) (human)
sequence,measurement,setting,value
GGGGGGGGT [9-mer G8T],fold reduction in affinity (fold lower affinity than for GGGGGGTTT),71F12GL-SFH (human),150
GGGGGGTTT [9-mer G6T3],fold reduction in affinity (fold lower affinity than 71F12GL-SFH),71F12GL-SF (human),30
TAATACGACTCACTATAGGG (double strand) [biotinylated 20-bp dsDNA (Fig. 4A)],Kd,72H11 IgG (human),400 nM
TTTTT [5-mer T5],fold reduction in affinity (fold lower affinity than 71F12),[1],50
